The source of these data is EP2431054A2 (Human Genome Sciences, Inc., dated 2012).

By Kd is commonly meant a measure of binding affinity in units of concentration.

The target of one assay is T1, TACI-Fc fusion protein (Homo sapiens (Human), UniProt O14836 1-159).
T1 construct: The dimeric form was enriched by size exclusion; also called full-length TACI-Fc; soluble TACI-Fc; not shown: Fc portion from vector pC4-Fc
T1 sequence: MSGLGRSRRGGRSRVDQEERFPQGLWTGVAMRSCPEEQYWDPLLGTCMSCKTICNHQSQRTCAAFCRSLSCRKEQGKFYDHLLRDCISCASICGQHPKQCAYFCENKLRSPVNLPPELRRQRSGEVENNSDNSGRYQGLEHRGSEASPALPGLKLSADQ
Nature of the assay: BIAcore (SPR), TACI-Fc amine-coupled to CM5 chip, TNF-epsilon as analyte. Background: SPR reads the build-up and loss of mass on a sensor chip optically.

Assay [1] deals with FLAG-epitope-tagged TNF-epsilon (in conditioned medium) (human) (UniProt O75888). Nature of the assay: co-immunoprecipitation with M2 anti-FLAG antibody, Western detection with anti-FLAG antibody.

B1: TNF-epsilon, trimeric form isolated by size exclusion chromatography (ligand)
chain: AVLTQKQKNDSDVTEVMWQPALRRGRGLQAQGYGVRIQDAGVYLLYSQVLFQDVTFTMGQVVSREGQGRQETLFRCIRSMPSHPDRAYNSCYSAGVFHLHQGDILSVIIPRARAKLNLSPHGTFLGFVKL
notes: This is the protein flowed over the TACI-Fc chip
The molecule B1 had a Kd with TACI-Fc fusion protein of 6 nM.

B2: TACI-Fc fusion protein (Fc fusion, not shown: a dimerising Fc or GST)
chain: T1 sequence
In assay [1], B2 displayed a percent of the TNF-epsilon present in the conditioned medium found in the immunoprecipitated TACI-Fc-TNF-epsilon complex of 20%.
